These are literature values, as cited in patent publication US20240401145A1, “METHOD FOR PREDICTING THE RESPONSE OF A PATIENT DIAGNOSED WITH CANCER TO TREATMENT AND/OR IMAGING WITH A COMPOUND TARGETING CCK2-R, AND COMPOUND FOR USE IN METHODS OF SELECTIVELY TREATING AND/OR IMAGING CANCER” (Paul Scherrer Institut, priority 2021, published 2024).

Ends that are not written are not given here.

The conditions of series [1]: gastrin analogues labeled with a radionuclide such as 111In; reported from WO 2015/067473 A1.
In series [2] the test system is transplanted CCKBR-expressing A431 cells. The settings on record: biodistribution in animal models; reported from WO 2015/067473 A1.
A further series deals with T1, CCK2-R (Homo sapiens, UniProt P32239).
T1 sequence (P32239 1-447): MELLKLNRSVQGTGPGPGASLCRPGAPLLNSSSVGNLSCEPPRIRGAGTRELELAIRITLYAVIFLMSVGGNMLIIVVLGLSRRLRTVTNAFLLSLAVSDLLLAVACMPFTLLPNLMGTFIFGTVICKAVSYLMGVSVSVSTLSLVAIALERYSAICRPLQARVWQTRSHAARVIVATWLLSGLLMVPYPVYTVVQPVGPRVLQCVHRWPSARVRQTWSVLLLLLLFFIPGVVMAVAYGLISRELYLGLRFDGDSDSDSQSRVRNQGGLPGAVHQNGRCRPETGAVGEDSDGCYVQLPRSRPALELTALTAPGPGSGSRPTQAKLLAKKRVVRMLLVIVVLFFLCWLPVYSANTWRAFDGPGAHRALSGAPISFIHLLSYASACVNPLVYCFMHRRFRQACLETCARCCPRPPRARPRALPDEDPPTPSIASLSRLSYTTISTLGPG
The settings on record: known from prior art.

For the substance “DOTA-(DGlu)6-Ala-Tyr-Gly-Trp-Nle-Asp-Phe-NH2 [PP-F11N]”, in series [1], the “chemical stability (resistance to proteolysis and oxidation)” value is “good”. Also, in series [2], the “accumulation in the kidneys” value is “low accumulation” and the “uptake in transplanted CCKBR-expressing A431 cells” value is given as “good uptake”.
Turning to “DOTA-(DGln)6-Ala-Tyr-Gly-Trp-Nle-Asp-Phe-NH2 [PP-F10N, reference compound]”, the “chemical stability (resistance to proteolysis and oxidation)” value in series [1] was “good”. Also, in series [2], the “accumulation in the kidneys” value is listed as “low accumulation” and the “uptake in transplanted CCKBR-expressing A431 cells” value is on record as “good uptake”.
For the substance “minigastrin: small peptide hormone known to bind CCK2-R with high affinity (WLEEEEEAYGWMDF; ends and bridges not checked; UniProt P01350 79-92, looked up)”, the “affinity of binding to CCK2-R” value in the series with CCK2-R is recorded as “high affinity”.
